Laboratory results taken from patent publication US9289478B2, “Formulations of tumour-associated peptides binding to human leukocyte antigen (HLA) class I or class II molecules for vaccine” (IMMATICS BIOTECHNOLOGIES GMBH, priority 2008, dated 2016).

Assay: HPLC-assay for in-use stability after reconstitution with 4.2% sodium hydrogen carbonate solution (Example 2, peptides SEQ ID NO 1-10)
Assay type: physicochemical
Procedure: Resolubilization procedure: For clinical trials the above described formulation is dissolved in 700 μl sodium hydrogen carbonate (4.2%). Remove plastic cap from one vial. Unpack and remove sodium hydrogen carbonate (4.2%) from the refrigerator at least 30 min before resolubilization to bring them up to room temperature before injection. Prepare syringe and needle for reconstitution. Use aseptic technique to take 700 μL of diluent for reconstitution of the lyophilisate. To dissolve the lyophilisate, the vial and the diluent shall be shaken vigorously for 1 minute, check whether solution is clear, otherwise continue shaking for another minute until the solution is clear. 10 to 30 minutes after GM-CSF injection, use a new syringe to administer 500 μL reconstituted formulation i.d. at the same site. Administration has to occur within 1 h after reconstitution. Dissolved lyophilisate may be stored aseptically at room temperature for up to 1 hour following reconstitution.
However, a decrease of two specific peptides, i.e. IMA-CCN-001 and IMA-RGS-001 took place (see Table 6). As these peptides contain a cysteine residue, time-depending dimerization takes place.
Identity, purity and peptide content are determined by analytical RP-HPLC chromatography. Detection wavelength was 220 nm.

[1] = +mannitol/lutrol, 1 h after reconstitution
[2] = +mannitol/lutrol, 2 h after reconstitution
[3] = +mannitol/lutrol, 3 h after reconstitution
[4] = +mannitol/lutrol, 4 h after reconstitution
[5] = +mannitol/lutrol, 5 h after reconstitution
[6] = +mannitol/lutrol, 6 h after reconstitution
[7] = +mannitol/lutrol, Initial (starting value set to 100%)
[8] = no excipients, 1 h after reconstitution
[9] = no excipients, 2 h after reconstitution
[10] = no excipients, 3 h after reconstitution
[11] = no excipients, Initial (starting value set to 100%)

Row | Sequence | in-use stability, peptide by HPLC-assay [1] [%] | in-use stability, peptide by HPLC-assay [2] [%] | in-use stability, peptide by HPLC-assay [3] [%] | in-use stability, peptide by HPLC-assay [4] [%] | in-use stability, peptide by HPLC-assay [5] [%] | in-use stability, peptide by HPLC-assay [6] [%] | in-use stability, peptide by HPLC-assay [7] [%] | in-use stability, peptide by HPLC-assay [8] [%] | in-use stability, peptide by HPLC-assay [9] [%] | in-use stability, peptide by HPLC-assay [10] [%] | in-use stability, peptide by HPLC-assay [11] [%] | stability after reconstitution (in words) (Example 2 formulation, 4.2% sodium hydrogen carbonate)
1 | ALFDGDPHL (listed as Homo sapiens) [K67-001, KIAA0367 tumour-associated peptide] | 99.8 | 100.4 | 101.6 | 101.8 | 100.6 | 102.5 | 100.0 | 100.8 | 99.2 | 97.5 | 100.0 | 
2 | SQDDIKGIQKLYGKRS (listed as Homo sapiens) [MMP-001, Matrix metalloproteinase 7 tumour-associated peptide] | 99.5 | 99.3 | 100.2 | 100.4 | 98.9 | 100.9 | 100.0 | 98.6 | 97.1 | 95.7 | 100.0 | 
3 | YVDPVITSI (listed as Homo sapiens) [MET-001, c-met proto-oncogene tumour-associated peptide] | 99.8 | 99.8 | 101.0 | 101.1 | 99.8 | 101.7 | 100.0 | 100.0 | 99.2 | 96.7 | 100.0 | 
4 | SVFAGVVGV (listed as Homo sapiens) [GUC-001, GUCY1A3 tumour-associated peptide] | 99.7 | 99.5 | 100.6 | 100.8 | 99.7 | 101.6 | 100.0 | 100.0 | 100.0 | 98.6 | 100.0 | 
5 | LLGATCMFV (listed as Homo sapiens) [CCN-001, Cyclin D1 tumour-associated peptide] | 95.6 | 92.2 | 91.3 | 89.2 | 86.1 | 85.9 | 100.0 | 82.8 | 72.1 | 63.3 | 100.0 | decrease
6 | ALADGVQKV (listed as Homo sapiens) [APO-001, Apolipoprotein L1 tumour-associated peptide] | 99.8 | 99.8 | 100.7 | 100.9 | 99.6 | 101.5 | 100.0 | 100.0 | 97.4 | 97.4 | 100.0 | 
7 | VMAGDIYSV (listed as Homo sapiens) [ADF-002, Adipophilin tumour-associated peptide] | 99.9 | 100.0 | 101.1 | 101.2 | 99.9 | 101.9 | 100.0 | 100.9 | 100.0 | 97.2 | 100.0 | 
